Experimental data reported in paper PMC6092394.

What was measured:
[1] = target: TRPC4β, CFP- or YFP-tagged (UniProt Q9QUQ5); test: FRET or BRET; three-cube FRET in living cells expressing Gαq (WT)-YFP, M3 and TRPC1α with TRPC4β-CFP or CFP-TRPC5; after stimulation with 100 μM CCh
[2] = target: TRPC5, CFP- or YFP-tagged (UniProt Q9QX29); test: as above
UniProt Q9QX29, sequence (Q9QX29 whole entry): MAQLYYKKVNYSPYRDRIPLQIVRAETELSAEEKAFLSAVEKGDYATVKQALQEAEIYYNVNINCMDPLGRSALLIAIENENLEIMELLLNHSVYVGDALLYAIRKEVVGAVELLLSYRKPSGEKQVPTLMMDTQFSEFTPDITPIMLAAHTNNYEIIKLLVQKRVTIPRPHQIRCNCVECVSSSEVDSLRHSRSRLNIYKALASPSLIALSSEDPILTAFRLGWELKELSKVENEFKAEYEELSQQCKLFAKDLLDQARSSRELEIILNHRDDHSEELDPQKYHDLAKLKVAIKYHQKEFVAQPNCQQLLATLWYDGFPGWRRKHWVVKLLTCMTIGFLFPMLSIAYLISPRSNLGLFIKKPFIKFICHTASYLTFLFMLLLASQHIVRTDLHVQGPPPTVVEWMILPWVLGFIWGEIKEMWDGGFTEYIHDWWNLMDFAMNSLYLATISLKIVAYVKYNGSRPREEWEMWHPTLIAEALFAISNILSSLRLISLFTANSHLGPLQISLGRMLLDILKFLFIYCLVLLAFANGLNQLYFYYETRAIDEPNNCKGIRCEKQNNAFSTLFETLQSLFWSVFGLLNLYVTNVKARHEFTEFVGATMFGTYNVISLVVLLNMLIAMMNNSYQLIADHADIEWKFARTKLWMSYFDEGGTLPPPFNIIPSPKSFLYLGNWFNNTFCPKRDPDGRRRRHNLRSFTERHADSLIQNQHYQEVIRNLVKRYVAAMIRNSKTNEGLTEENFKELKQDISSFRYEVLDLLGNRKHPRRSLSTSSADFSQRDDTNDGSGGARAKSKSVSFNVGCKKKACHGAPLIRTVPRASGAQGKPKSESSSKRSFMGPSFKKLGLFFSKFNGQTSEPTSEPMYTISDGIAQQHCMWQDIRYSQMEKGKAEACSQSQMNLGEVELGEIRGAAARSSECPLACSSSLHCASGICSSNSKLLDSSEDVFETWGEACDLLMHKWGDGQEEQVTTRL

UniProt Q9QUQ5, sequence (Q9QUQ5 other isoform, or with tags, fused parts or gaps): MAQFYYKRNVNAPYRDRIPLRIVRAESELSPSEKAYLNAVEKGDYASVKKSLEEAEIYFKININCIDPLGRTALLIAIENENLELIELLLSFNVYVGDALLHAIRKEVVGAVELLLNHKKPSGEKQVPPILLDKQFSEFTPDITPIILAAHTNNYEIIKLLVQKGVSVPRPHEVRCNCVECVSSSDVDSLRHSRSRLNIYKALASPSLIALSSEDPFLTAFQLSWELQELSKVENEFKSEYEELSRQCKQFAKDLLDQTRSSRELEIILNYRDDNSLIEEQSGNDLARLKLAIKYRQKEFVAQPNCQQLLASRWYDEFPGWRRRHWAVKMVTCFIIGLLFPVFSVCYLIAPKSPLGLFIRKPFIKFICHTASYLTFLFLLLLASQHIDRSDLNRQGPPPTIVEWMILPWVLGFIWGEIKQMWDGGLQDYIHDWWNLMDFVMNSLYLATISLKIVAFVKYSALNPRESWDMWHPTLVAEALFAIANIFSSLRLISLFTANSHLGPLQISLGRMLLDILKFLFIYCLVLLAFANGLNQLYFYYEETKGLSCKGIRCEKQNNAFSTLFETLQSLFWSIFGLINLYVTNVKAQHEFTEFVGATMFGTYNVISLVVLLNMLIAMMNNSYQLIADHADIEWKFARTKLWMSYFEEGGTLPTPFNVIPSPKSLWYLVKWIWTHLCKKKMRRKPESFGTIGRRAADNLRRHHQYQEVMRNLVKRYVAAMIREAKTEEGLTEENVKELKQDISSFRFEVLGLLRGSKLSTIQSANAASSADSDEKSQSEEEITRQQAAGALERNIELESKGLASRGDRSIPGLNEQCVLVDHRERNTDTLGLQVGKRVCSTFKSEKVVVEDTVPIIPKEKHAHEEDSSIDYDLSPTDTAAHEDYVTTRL

With “Gαq (WT)-YFP (from UniProt P50148 1-359) (natural protein)” the FRET efficiency (after 100 μM CCh) [1] was 8.8% and the FRET efficiency (after 100 μM CCh) [2] was 15.9%.
